Reference: paper PMC13507078, “The BRCT domain enhances DNA binding and catalytic efficiency of fungal PARPs”

Tests used:
Af-PARP1 S241Q [1] = molecular target: T1, Af-PARP1 S241Q (Aspergillus fumigatus, UniProt B0Y3N8 1-23+35-688, S252Q;internal_change); assay: EMSA; mutation did not restore binding; EMSA: 50 mM HEPES pH 8, 100 mM NaCl, 10% glycerol, 10 mM DTT, 45 min at 4 °C, 7% native PAGE 0.5x TBE; plasmid EMSA: 20 mM Tris-HCl pH 8, 30 mM NaCl, 1 mM EDTA, 1 mM DTT; CD: 20 mM HEPES pH 8, 100 mM NaCl, 0.5 mM TCEP, 2% glycerol; conditions: protein: recombinant; tags: His; hairpin, blunt end
Af-PARP1 K52/60A = Af-PARP1 K52/60A (Aspergillus fumigatus, UniProt B0Y3N8 1-23+35-688, K63A;K71A;internal_change); assay: EMSA; EMSA: 50 mM HEPES pH 8, 100 mM NaCl, 10% glycerol, 10 mM DTT, 45 min at 4 °C, 7% native PAGE 0.5x TBE; plasmid EMSA: 20 mM Tris-HCl pH 8, 30 mM NaCl, 1 mM EDTA, 1 mM DTT; CD: 20 mM HEPES pH 8, 100 mM NaCl, 0.5 mM TCEP, 2% glycerol; conditions: protein: recombinant; tags: His; dumbbell of two hairpins, nick
Af-PARP1 K56A = Af-PARP1 K56A (Aspergillus fumigatus, UniProt B0Y3N8 1-23+35-688, K67A;internal_change); assay: as above; conditions: protein: recombinant; tags: His; dumbbell of two hairpins, nick
Af-PARP1 Q22A = Af-PARP1 Q22A (Aspergillus fumigatus, UniProt B0Y3N8 1-23+35-688, Q22A;internal_change); assay: as above; conditions: protein: recombinant; tags: His; dumbbell of two hairpins, nick
Af-PARP1 E53A = Af-PARP1 E53A (Aspergillus fumigatus, UniProt B0Y3N8 1-23+35-688, E64A;internal_change); assay: as above; conditions: protein: recombinant; tags: His; dumbbell of two hairpins, nick
Af-PARP1 K60A = Af-PARP1 K60A (Aspergillus fumigatus, UniProt B0Y3N8 1-23+35-688, K71A;internal_change); assay: as above; conditions: protein: recombinant; tags: His; dumbbell of two hairpins, nick
Af-PARP1 K52A = Af-PARP1 K52A (Aspergillus fumigatus, UniProt B0Y3N8 1-23+35-688, K63A;internal_change); assay: as above; conditions: protein: recombinant; tags: His; dumbbell of two hairpins, nick
Af-PARP1 S14A = Af-PARP1 S14A (Aspergillus fumigatus, UniProt B0Y3N8 1-23+35-688, S14A;internal_change); assay: as above; conditions: protein: recombinant; tags: His; dumbbell of two hairpins, nick
Af-PARP1 S241Q [2] = molecular target: T1, Af-PARP1 S241Q; assay: as above; conditions: protein: recombinant; tags: His; described as blunt duplex; printed strands not exactly complementary

**Q.** Does GGAAGTTCTTTTGAACTTCC (structured_DNA, 5'-phosphate) [DNA-5 (5'P blunt)] bind (Af-PARP1 S241Q [1])?
**A.** no binding

**Q.** Does CGGTCGATCGTAAGATCGACCGGCGCTGGAGCTTGCTCCAGCGC (structured_DNA, 5'-phosphate) [DNA-1 (5'P nick)] bind (Af-PARP1 K52/60A)?
**A.** binds

**Q.** Does CGGTCGATCGTAAGATCGACCGGCGCTGGAGCTTGCTCCAGCGC (structured_DNA, 5'-phosphate) [DNA-1 (5'P nick)] bind (Af-PARP1 K56A)?
**A.** binds

**Q.** Does CGGTCGATCGTAAGATCGACCGGCGCTGGAGCTTGCTCCAGCGC (structured_DNA, 5'-phosphate) [DNA-1 (5'P nick)] bind (Af-PARP1 Q22A)?
**A.** binds

**Q.** Does CGGTCGATCGTAAGATCGACCGGCGCTGGAGCTTGCTCCAGCGC (structured_DNA, 5'-phosphate) [DNA-1 (5'P nick)] bind (Af-PARP1 E53A)?
**A.** binds

**Q.** Does CGGTCGATCGTAAGATCGACCGGCGCTGGAGCTTGCTCCAGCGC (structured_DNA, 5'-phosphate) [DNA-1 (5'P nick)] bind (Af-PARP1 K60A)?
**A.** binds

**Q.** Does CGGTCGATCGTAAGATCGACCGGCGCTGGAGCTTGCTCCAGCGC (structured_DNA, 5'-phosphate) [DNA-1 (5'P nick)] bind (Af-PARP1 K52A)?
**A.** binds

**Q.** Does CGGTCGATCGTAAGATCGACCGGCGCTGGAGCTTGCTCCAGCGC (structured_DNA, 5'-phosphate) [DNA-1 (5'P nick)] bind (Af-PARP1 S14A)?
**A.** binds

B1: DNA-16/17 (5'P duplex) (dsDNA)
DNA 1: GACGACCCGGACACA
DNA 2: TGTGCTCCGGGTCGTC
modifications: 5'-phosphate on DNA-16
**Q.** Does B1 bind (Af-PARP1 S241Q [2])?
**A.** binds
